Test results reported in patent US20030059769, “High affinity nucleic acid ligands to lectins” (published 2003).

Tests used:
P-selectin (PS-Rg) [1] = biological target: T1, P-selectin (PS-Rg) (Homo sapiens, UniProt P16109 P16109:42-321); assay: filter; 37 C; 0.01 nM at 4 C; settings: tags: human IgG1 Fc fusion; chain copies: dimer; label: 32P
E-selectin (ES-Rg) [2] = biological target: T2, E-selectin (ES-Rg) (Homo sapiens, UniProt P16581 P16581:22-556); assay: filter; specificity control; settings: tags: human IgG1 Fc fusion; chain copies: dimer (inferred); label: 32P
T2 sequence: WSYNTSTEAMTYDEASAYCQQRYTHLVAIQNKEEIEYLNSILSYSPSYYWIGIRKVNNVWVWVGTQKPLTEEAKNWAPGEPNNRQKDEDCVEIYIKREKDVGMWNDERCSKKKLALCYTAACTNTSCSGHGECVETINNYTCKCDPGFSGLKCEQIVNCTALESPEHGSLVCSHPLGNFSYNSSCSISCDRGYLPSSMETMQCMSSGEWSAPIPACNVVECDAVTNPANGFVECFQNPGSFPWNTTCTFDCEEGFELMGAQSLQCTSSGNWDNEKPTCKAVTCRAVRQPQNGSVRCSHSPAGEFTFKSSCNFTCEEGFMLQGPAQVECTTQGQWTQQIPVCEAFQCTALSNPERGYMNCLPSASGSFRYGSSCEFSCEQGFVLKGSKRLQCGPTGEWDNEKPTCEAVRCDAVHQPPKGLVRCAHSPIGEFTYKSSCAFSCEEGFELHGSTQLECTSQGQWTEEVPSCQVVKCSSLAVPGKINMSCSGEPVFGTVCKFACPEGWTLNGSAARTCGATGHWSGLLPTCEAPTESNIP

L-selectin (LS-Rg) [3] = biological target: T3, L-selectin (LS-Rg) (Homo sapiens, UniProt P14151 P14151:39-332); assay: filter; upper stem and loop only; settings: tags: human IgG2 Fc fusion; chain copies: dimer; hairpin
T3 sequence: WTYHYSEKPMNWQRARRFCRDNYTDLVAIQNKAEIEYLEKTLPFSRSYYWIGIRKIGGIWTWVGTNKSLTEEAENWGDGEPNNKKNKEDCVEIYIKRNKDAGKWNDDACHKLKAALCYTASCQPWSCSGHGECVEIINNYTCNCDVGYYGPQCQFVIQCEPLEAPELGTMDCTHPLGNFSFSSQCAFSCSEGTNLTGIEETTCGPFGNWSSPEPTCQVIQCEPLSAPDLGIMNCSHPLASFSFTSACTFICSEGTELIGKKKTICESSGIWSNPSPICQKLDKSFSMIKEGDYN
Procedure: (§1) As described in SELEX Patent Applications, a nitrocellulose filter partitioning method was used to determine the affinity of RNA ligands for LS-Rg and for other proteins. Filter discs (nitrocellulose/cellulose acetate mixed matrix, 0.45 μm pore size, Millipore) were placed on a vacuum manifold and washed with 3 ml of SHMCK 140 buffer under vacuum. Reaction mixtures, containing ³²P labeled RNA pools and unlabeled LS-Rg, were incubated in SHMCK 140 for 10-20 min at 37° C., and then immediately washed with 3 ml SHMCK 140. The filters were air-dried and counted in a Beckman LS6500 liquid scintillation counter without fluor. Alternatively, binding studies employed 96 well micro-titer manifolds essentially as described in Example 13, paragraph E.
Predictions of minimal high affinity sequences for family 1 ligands can be made and serve as a partial test of the postulated secondary structure.

L-selectin (LS-Rg) [4] = biological target: T3, L-selectin (LS-Rg); assay: filter; truncate at base of lower stem; settings: tags: human IgG2 Fc fusion; chain copies: dimer; hairpin
L-selectin (LS-Rg) [5] = biological target: T3, L-selectin (LS-Rg); assay: inhibition; sialyl-LewisX competition ELISA; settings: tags: human IgG2 Fc fusion; chain copies: 2 (stated dimer)
Procedure: SLe^X-BSA (Oxford GlycoSystems, Oxford, UK) in 1X PBS, without CaCl₂, and MgCl₂, (GIBCO/BRL) was immobilized at 100 ng/well onto a microtiter plate by overnight incubation at […]. The wells were blocked for 1 h with the assay buffer consisting of 20 mM HEPES, 111 mM NaCl, 1 mM CaCl₂, 1 mM MgCl₂, 5 mM KCl, 8.9 mM NaOH, final pH 8, and 1% globulin-free BSA (Sigma). The reaction mixtures, incubated for 90 min with orbital shaking, contained 5 nM L-Selectin-Rg, a 1:100 dilution of anti-human IgG-peroxidase conjugate (Sigma), and 0 - 50 ruM of competitor in assay buffer. After incubation, the plate was washed with BSA-free assay buffer to remove unbound chimera-antibody complex and incubated for 25 min with O-phenylenediamine dihydrochloride peroxidase substrate (Sigma) by shaking in the dark at 22°0 C. Absorbance was read at 450 nm on a Bio-Kinetics Reader, Model EL312e (Bio-Tek Instruments, Laguna Hills, Calif.). Values shown represent the mean ±s.e from duplicate, or triplicate, samples from one representative experiment.
Sialyl Lewis^X is the minimal carbohydrate ligand bound by selecting.

[6] = biological target: T4, L-selectin on PBMC / lymphocytes (Homo sapiens, UniProt P14151 P14151:39-372); assay: flow; half-saturation on human lymphocytes; divalent cation dependent; settings: label: 32P or 5'-fluorescein (cells); hairpin
T4 sequence: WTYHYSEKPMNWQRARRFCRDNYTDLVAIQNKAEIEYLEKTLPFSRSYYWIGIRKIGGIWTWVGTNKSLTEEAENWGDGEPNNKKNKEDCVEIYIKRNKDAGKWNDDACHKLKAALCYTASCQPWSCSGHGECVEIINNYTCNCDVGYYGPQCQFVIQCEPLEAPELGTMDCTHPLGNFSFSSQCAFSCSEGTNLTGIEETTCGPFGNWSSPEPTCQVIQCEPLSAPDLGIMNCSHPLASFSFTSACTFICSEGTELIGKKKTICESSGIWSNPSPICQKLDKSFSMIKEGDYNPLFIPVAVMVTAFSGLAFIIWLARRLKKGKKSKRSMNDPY
From the text: (§2) A variety of monomeric nucleic acid ligands and multivalent Complexes have been examined in flow cytometry.

soluble L-selectin [7] = biological target: T5, soluble L-selectin (Homo sapiens, UniProt P14151 P14151:39-332); assay: filter; 37 C, soluble L-selectin; settings: tags: R&D Systems; label: 32P
T5 sequence: T3 sequence
Procedure: Unless otherwise indicated, all materials used in the 2′-F RNA SELEX against the L-selectin/IgG2 chimera, LS-Rg, were identical to those of Examples 7, paragraph A and 13, paragraph A. SHMCK-140 buffer, used for all SELEX and binding experiments, was 1 mM CaCl₂, 1 mM MgCC₂, 140 mM NaCl, 5 mM KCl. and 20 mM HEPES, pH 7.4. A soluble form of L-selectin, corresponding to the extracellular domains, was purchased from R&D Systems and used for some nitrocellulose filter binding experiments.
as §1

L-selectin (LS-Rg) [8] = biological target: T3, L-selectin (LS-Rg); assay: filter; 37 C; lacks 7-nt bulge; settings: tags: human IgG2 Fc fusion; chain copies: dimer; label: 32P; hairpin lacking bulge
Procedure: as §1
These calculations assume two ligand binding sites per chimera.

E-selectin (ES-Rg) [9] = biological target: T2, E-selectin (ES-Rg); assay: filter; specificity control; settings: tags: human IgG1 Fc fusion; chain copies: dimer (inferred); label: 32P; remark: listed apart in the source
Procedure: The affinity of P-selectin ligands to ES-Rg, LS-Rg and CD22β-Rg were determined by nitrocellulose partitioning. […] In general, a ligand's affinity for ES-Rg and LS-Rg is at least 10⁴-fold lower than for PS-Rg. […] The specificity of oligonucleotide ligand binding contrasts sharply with the binding of cognate carbohydrates by the selectins and confirms the proposition that SELEX ligands will have greater specificity than carbohydrate ligands.

P-selectin (PS-Rg) [10] = biological target: T1, P-selectin (PS-Rg); assay: filter; 37 C, HSMC; settings: tags: human IgG1 Fc fusion; chain copies: dimer; label: 32P
soluble L-selectin [11] = biological target: T5, soluble L-selectin; assay: filter; binding undetectable, 37 C; settings: tags: R&D Systems
[12] = biological target: T4, L-selectin on PBMC / lymphocytes; assay: flow; half-saturation
From the text: as §2

[13] = biological target: T4, L-selectin on PBMC / lymphocytes; assay: flow; competition with FITC-LD201T1
Procedure: Binding of evolved ligands to L-selectin presented in the context of a cell surface was tested by flow cytometry experiments with human lymphocytes. Briefly, peripheral blood mononuclear cells (PBMC) were purified on histoplaque by standard techniques. […] Fluorescent staining of cells was quantified on a FACSCaliber fluorescent activated cell sorter (Becton Dickinson, San Jose, Calif.). The affinity of the 2′-F competitor was calculated from the flurorescence inhibition curves.
The ability of full length 2′-F ligands to bind to L-selectin presented in the context of a cell surface was tested by competition-flow cytometry experiments with human peripheral blood lymphocytes.

T1 sequence (P16109 42-321, one chain of several): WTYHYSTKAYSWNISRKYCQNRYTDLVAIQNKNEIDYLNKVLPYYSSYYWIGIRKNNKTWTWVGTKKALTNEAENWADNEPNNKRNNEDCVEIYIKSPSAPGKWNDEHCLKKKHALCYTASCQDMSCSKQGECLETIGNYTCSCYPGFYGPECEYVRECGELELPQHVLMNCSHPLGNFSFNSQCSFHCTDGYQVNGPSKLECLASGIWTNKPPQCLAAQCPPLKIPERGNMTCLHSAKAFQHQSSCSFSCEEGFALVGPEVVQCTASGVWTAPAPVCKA

B1: PA350 (ssRNA)
RNA: GGGAGACAAGAAUAAACGCUCAAGCCCCAAACGCAAGUGAGCAUCCGCAACAGGGAAGAAGACAGACGAUUGAUUCGACAGGAGGCUCACAACAGGC
modifications: 2'-NH2 on all C and U
Kd (P-selectin (PS-Rg) [1]): 0.06 nM | Kd (E-selectin (ES-Rg) [2]): 375 nM

UGCGUGUUUUCAAGCA (ssRNA, 2'-F on all C and U) [LF1514T1]
binding signal (L-selectin (LS-Rg) [3]): ≥ 100 fold weaker than LF1514

GGUACCUCAAAUUGCGUGUUUUCAAGCAGUAUC (ssRNA, 2'-F on all C and U) [LF1514T4]
binding signal (L-selectin (LS-Rg) [4]): < 2 fold weaker than LF1514

TAGCCAAGGTAACCAGTACAAGGTGCTAAACGTAATGGCTTCGGCTTAC (ssDNA) [LD201T1]
IC50 (L-selectin (LS-Rg) [5]): ~3 nM | Kd [6]: 3 nM

B2: LF1516 (ssRNA)
RNA: GGGAGGACGAUGCGGUCAUUCUCUAAAAAAGUAUUCCGUACCUCCACAGACGACUCGCCCGA
modifications: 2'-F on all C and U
Kd (soluble L-selectin [7]): 1.3 nM

B3: LF1817 (ssRNA)
RNA: GGGAGGACGAUGCGGUGCUUAAACAACGCGUGAAUCGAGUUCAUCCACUCCUCCUCAGACGACUCGCCCGA
modifications: 2'-F on all C and U
Kd (soluble L-selectin [7]): 2.3 nM

B4: LF1512 (ssRNA)
RNA: GGGAGGACGAUGCGGCACACGUGUUUUCAAGUGUGCUCCUGGGAUCAGACGACUCGCCCGA
modifications: 2'-F on all C and U
Kd (L-selectin (LS-Rg) [8]): 315 nM

B5: PF377 (ssRNA)
RNA: GGGAGACAAGAAUAAACGCUCAACGAGCCAGGAACAUCGACGUCAGCAAACGCGAGCGCAACCAGUAACACCUUCGACAGGAGGCUCACAACAGGC
modifications: 2'-F on all C and U
Kd (E-selectin (ES-Rg) [9]): 2300 nM | Kd (P-selectin (PS-Rg) [10]): 0.0185 nM

B6: LF1528 (ssRNA)
RNA: GGGAGGACGAUGCGGUUAGGUCAAUGAUCUUAGUUUUCGAUUCGUCAGACGACUCGCCCGA
modifications: 2'-F C and U
binding result (soluble L-selectin [11]): no binding

B7: LF1816 (ssRNA)
RNA: GGGAGGACGAUGCGGUGCUAUUCUUAAGCGGCGUGUAAAUCAAGCUAGAUCAUCGUCAGACGACUCGCCCGA
modifications: 2'-F C and U
binding result (soluble L-selectin [11]): no binding

B8: LD201T1 branched dimer (ssDNA)
DNA: TAGCCAAGGTAACCAGTACAAGGTGCTAAACGTAATGGCTTCGGCTTAC
modifications: two copies linked 3' ends via five-unit ethylene glycol spacers to 3'-3' symmetric linker
EC50 ([12]; label: 5' fluorescein): ~0.15 nM

TAGCCAAGGTAACCAGTACAAGGTGCTAAACGTAATGGCTTCGGCTTAC (ssDNA, biotin, multivalent on streptavidin) [bio-LD201T1/streptavidin]
EC50 ([12]; label: labeled streptavidin): ~0.15 nM

TAGCCATTCACCATGGCCCCTTCCTACGTATGTTCTGCGGGTGGCTTA (ssDNA) [LD174T1]
IC50 (L-selectin (LS-Rg) [5]): ~3 nM

AGCTGGCGGTACGGGCCGTGCACCCACTTACCTGGGAAGTGAGCTTA (ssDNA) [LD196T1]
IC50 (L-selectin (LS-Rg) [5]): ~3 nM

B9: LF1613 (ssRNA)
RNA: GGGAGGACGAUGCGGUGCUAUUCUUAAGCGGCGUGUUUUUCAAGCCAAUAUCAUCAGACGACUCGCCCGA
modifications: 2'-F C and U
Kd [13]: 0.2 nM

B10: LF1514 (ssRNA)
RNA: GGGAGGACGAUGCGGUACCUCAAAUUGCGUGUUUUCAAGCAGUAUCAGACGACUCGCCCGA
modifications: 2'-F C and U
Kd [13]: 0.8 nM

B11: LF1513 (ssRNA)
RNA: GGGAGGACGAUGCGGGCUCUUCAGCAACGUGUUAUCAAGUUAGCCCAGACGACUCGCCCGA
modifications: 2'-F C and U
Kd [13]: 4 nM

B12: LF1618 (ssRNA)
RNA: GGGAGGACGAUGCGGUUAGCCUACACUCUAGGUUCAGUUUUCGAAUCUUCCACCGCAGACGACUCGCCCGA
modifications: 2'-F C and U [all C and U 2'-F; W in the 3' fixed region (cagacgacucgcccga) = A]
Kd [13]: 25 nM
